Test results published in article PMC12196928, “Site-Directed Mutagenesis Mediated by Molecular Modeling and Docking and Its Effect on the Protein–Protein Interactions of the bHLH Transcription Factors SPATULA, HECATE1, and INDEHISCENT” (Plants, 2025).
Numbering of substitutions follows the chain as printed. Names and notes keep the numbering of the source. Blank lines part the entries; values can stand above or below the binder they belong to.

How the values were obtained:
[1] = target: T1, VN:SPT (SPATULA fused to the N-terminal fragment of Venus YFP) (Arabidopsis thaliana, UniProt Q9FUA4 1-373); experiment: split reporter (BiFC, NanoBiT); BiFC with split Venus YFP (VN 1-154, VC 155-238) in Arabidopsis Col-0 mesophyll protoplasts, PEG-Ca transfection, 35S promoter, read 16 h after transfection by confocal microscopy; frequency = YFP-positive protoplasts/total protoplasts x 100, four images of about 200 protoplasts each; settings: partners not purified
T1 construct: SPATULA (SPT), bHLH transcription factor of Arabidopsis thaliana, AT4G36930; source: Arabidopsis Col-0 mesophyll protoplasts, transfected (PEG-Ca), in cells; not shown: Venus YFP N-terminal fragment (residues 1-154)
T1 sequence (looked up): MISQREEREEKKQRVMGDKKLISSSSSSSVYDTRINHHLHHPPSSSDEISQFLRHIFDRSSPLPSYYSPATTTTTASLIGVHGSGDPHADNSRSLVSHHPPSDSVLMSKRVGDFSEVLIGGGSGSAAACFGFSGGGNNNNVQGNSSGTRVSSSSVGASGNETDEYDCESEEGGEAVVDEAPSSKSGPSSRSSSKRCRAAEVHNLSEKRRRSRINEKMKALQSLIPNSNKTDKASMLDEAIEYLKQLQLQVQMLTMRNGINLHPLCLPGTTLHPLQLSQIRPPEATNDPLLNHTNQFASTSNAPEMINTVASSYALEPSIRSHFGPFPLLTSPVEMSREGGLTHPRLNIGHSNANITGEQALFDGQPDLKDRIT

[2] = target: T2, VN:SPT-4A (SPATULA V176A-V177A-D178A-E179A fused to the N-terminal fragment of Venus YFP) (Arabidopsis thaliana, UniProt Q9FUA4 1-373, V176A | V177A | D178A | E179A); experiment: as above; settings: partners not purified
T2 construct: SPATULA (SPT), Arabidopsis thaliana, AT4G36930; source: Arabidopsis Col-0 mesophyll protoplasts, transfected (PEG-Ca), in cells; not shown: Venus YFP N-terminal fragment (residues 1-154)
T2 sequence (looked up): T1 sequence (looked up) with V176A, V177A, D178A, E179A

average interaction frequency (percent of protoplasts with YFP signal) [1]: 34.2%
B1: VC:HEC1 (HECATE1 fused to the C-terminal fragment of Venus YFP) (natural protein, Arabidopsis thaliana, UniProt Q9FHA7 1-241, looked up)
chain: MDSDIMNMMMHQMEKLPEFCNPNSSFFSPDHNNTYPFLFNSTHYQSDHSMTNEPGFRYGSGLLTNPSSISPNTAYSSVFLDKRNNSNNNNNGTNMAAMREMIFRIAVMQPIHIDPEAVKPPKRRNVRISKDPQSVAARHRRERISERIRILQRLVPGGTKMDTASMLDEAIHYVKFLKKQVQSLEEQAVVTGGGGGGGGRVLIGGGGMTAASGGGGGGGVVMKGCGTVGTHQMVGNAQILR
notes: HECATE1 (HEC1), bHLH transcription factor of Arabidopsis thaliana, AT5G67060; source: Arabidopsis Col-0 mesophyll protoplasts, transfected (PEG-Ca), in cells; not shown: Venus YFP C-terminal fragment (residues 155-238)

average interaction frequency (percent of protoplasts with YFP signal) [2]: 13.5%
B2: VC:IND (INDEHISCENT fused to the C-terminal fragment of Venus YFP) (natural protein, Arabidopsis thaliana, UniProt O81313 1-198, looked up)
chain: MENGMYKKKGVCDSCVSSKSRSNHSPKRSMMEPQPHHLLMDWNKANDLLTQEHAAFLNDPHHLMLDPPPETLIHLDEDEEYDEDMDAMKEMQYMIAVMQPVDIDPATVPKPNRRNVRISDDPQTVVARRRRERISEKIRILKRIVPGGAKMDTASMLDEAIRYTKFLKRQVRILQPHSQIGAPMANPSYLCYYHNSQP
notes: INDEHISCENT (IND), bHLH transcription factor of Arabidopsis thaliana, AT4G00120; source: Arabidopsis Col-0 mesophyll protoplasts, transfected (PEG-Ca), in cells; not shown: Venus YFP C-terminal fragment (residues 155-238)

average interaction frequency (percent of protoplasts with YFP signal) [2]: 14.9%
average interaction frequency (percent of protoplasts with YFP signal) [1]: 13%
B3: VC:IND-3A (INDEHISCENT N112A-R113A-R114A fused to the C-terminal fragment of Venus YFP) (natural protein, Arabidopsis thaliana, UniProt O81313 1-198, looked up)
chain: B2 chain with N112A, R113A, R114A
notes: INDEHISCENT (IND), Arabidopsis thaliana, AT4G00120; the methods list only VC:IND-3A; source: Arabidopsis Col-0 mesophyll protoplasts, transfected (PEG-Ca), in cells; not shown: Venus YFP C-terminal fragment (residues 155-238)
